Reference: the supplement of paper PMC9428881
± gives the standard error.

Assay: background-corrected fluorescence of 3'-dye-labeled ssDNA relative to brightest sequence (3'-GCGCG) (fraction); higher = brighter dye fluorescence (less quenching)
Outline: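 By light-directed phosphoramidite synthesis, single-stranded DNA ending in a 3' Cy3 or Cy5 dye beside each of 1024 permuted pentamers was built on glass slides. Scanning at 532 or 635 nm took place before and after overnight ethylenediamine/ethanol deprotection. Data are means of 10 features per array over at least 3 syntheses. Fluorescence is corrected for unlabeled-oligo background and scaled to the brightest sequence.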

| Sequence | background-corrected fluorescence (dye: Cy3 (3' terminal)) | background-corrected fluorescence (dye: Cy5 (3' terminal)) |
| --- | --- | --- |
| TTTTTTGCGCATCATGATGCTTTTTTTTTTTTTTTATGCA [ACGTA] | 0.527 ± 0.024 | 0.46 ± 0.036 |
| TTTTTTCATGATGCTGCTGATTTTTTTTTTTTTTTGCAAC [CAACG] | 0.469 ± 0.014 | 0.319 ± 0.017 |
| TTTTTTGATCATGAGCAGCATTTTTTTTTTTTTTTCGCTT | 0.51 ± 0.017 | 0.409 ± 0.047 |
| TTTTTTCATGATCAGCATGATTTTTTTTTTTTTTTGCGTC [CTGCG] | 0.481 ± 0.033 | 0.366 ± 0.028 |
| TTTTTTGATCATCAGCATCATTTTTTTTTTTTTTTCGGTG [GTGGC] | 0.574 ± 0.02 | 0.484 ± 0.031 |
| TTTTTTGAGCATCATGATCATTTTTTTTTTTTTTTCTGCG [GCGTC] | 0.589 ± 0.024 | 0.483 ± 0.051 |
| TTTTTTGAGCATGCTGAGCATTTTTTTTTTTTTTTCTACT [TCATC] | 0.454 ± 0.0046 | 0.33 ± 0.024 |
| TTTTTGCATGATCATGAGCATTTTTTTTTTTTTTTTCGCT | 0.486 ± 0.0071 | 0.392 ± 0.085 |
| TTTTTGCATGATCATGCTGATTTTTTTTTTTTTTTTCGAC [CAGCT] | 0.448 ± 0.03 | 0.378 ± 0.038 |
| TTTTTTGATGCTGCTGAGCATTTTTTTTTTTTTTTCAACT | 0.53 ± 0.011 | 0.342 ± 0.018 |
| TTTTTTGCGCATGCGCATGATTTTTTTTTTTTTTTATATC [CTATA] | 0.438 ± 0.025 | 0.322 ± 0.017 |
| TTTTTTGATGATGATCATGATTTTTTTTTTTTTTTCCCGC [CGCCC] | 0.51 ± 0.013 | 0.419 ± 0.034 |
| TTTTTTGCGCATGATGCTGATTTTTTTTTTTTTTTATCAC [CACTA] | 0.399 ± 0.025 | 0.325 ± 0.032 |
| TTTTTTGATGCGCATGCTCATTTTTTTTTTTTTTTCATAG [GATAC] | 0.521 ± 0.02 | 0.422 ± 0.027 |
| TTTTTTGATCATGAGCATGATTTTTTTTTTTTTTTCGCTC [CTCGC] | 0.452 ± 0.039 | 0.318 ± 0.024 |
| TTTTTGCATGCTGCTGATGATTTTTTTTTTTTTTTTAACC [CCAAT] | 0.396 ± 0.025 | 0.278 ± 0.021 |
| TTTTTTGATGCGCATCATGCTTTTTTTTTTTTTTTCATGA [AGTAC] | 0.672 ± 0.026 | 0.579 ± 0.038 |
| TTTTTTGCGCATGATCAGCATTTTTTTTTTTTTTTATCGT [TGCTA] | 0.605 ± 0.011 | 0.449 ± 0.027 |
| TTTTTTGATCATGATGAGCATTTTTTTTTTTTTTTCGCCT [TCCGC] | 0.488 ± 0.028 | 0.369 ± 0.03 |
| TTTTTGCAGCAGCAGCATCATTTTTTTTTTTTTTTTTTTG [GTTTT] | 0.461 ± 0.0051 | 0.334 ± 0.032 |
| TTTTTGCAGCAGCATGCTCATTTTTTTTTTTTTTTTTTAG [GATTT] | 0.511 ± 0.015 | 0.394 ± 0.048 |
| TTTTTTGCTGCTCAGCATCATTTTTTTTTTTTTTTAAGTG [GTGAA] | 0.587 ± 0.027 | 0.457 ± 0.042 |
| TTTTTTGATGATCAGCATGCTTTTTTTTTTTTTTTCCGTA [ATGCC] | 0.546 ± 0.025 | 0.436 ± 0.028 |
| TTTTTGCATGATGCTCATGCTTTTTTTTTTTTTTTTCAGA [AGACT] | 0.615 ± 0.017 | 0.531 ± 0.036 |
| TTTTTTGCTGAGCATGCTCATTTTTTTTTTTTTTTACTAG [GATCA] | 0.554 ± 0.029 | 0.433 ± 0.025 |
| TTTTTTCAGCAGCATGATCATTTTTTTTTTTTTTTGTTCG [GCTTG] | 0.551 ± 0.0098 | 0.371 ± 0.032 |

| Sequence | background-corrected fluorescence (dye: Cy3 (3' terminal)) | background-corrected fluorescence (dye: Cy5 (3' terminal)) |
| --- | --- | --- |
| TTTTTTGCGCAGCATCATGCTTTTTTTTTTTTTTTATTGA [AGTTA] | 0.643 ± 0.018 | 0.555 ± 0.03 |
| TTTTTGCATGATGATCATCATTTTTTTTTTTTTTTTCCGG [GGCCT] | 0.617 ± 0.0071 | 0.539 ± 0.037 |
| TTTTTTCATGCGCATGCTGATTTTTTTTTTTTTTTGATAC [CATAG] | 0.448 ± 0.026 | 0.334 ± 0.024 |
| TTTTTTGATGCTCATGATGATTTTTTTTTTTTTTTCAGCC [CCGAC] | 0.462 ± 0.011 | 0.321 ± 0.042 |
| TTTTTTCATCATGCTGCTGCTTTTTTTTTTTTTTTGGAAA [AAAGG] | 0.642 ± 0.038 | 0.534 ± 0.035 |
| TTTTTGCATGCTCATGCGCATTTTTTTTTTTTTTTTAGAT | 0.569 ± 0.031 | 0.463 ± 0.02 |
| TTTTTTCAGCAGCATGCTGATTTTTTTTTTTTTTTGTTAC [CATTG] | 0.447 ± 0.024 | 0.338 ± 0.055 |
| TTTTTTGCGCATCAGCAGCATTTTTTTTTTTTTTTATGTT [TTGTA] | 0.575 ± 0.028 | 0.432 ± 0.035 |
| TTTTTGCAGCAGCATCATCATTTTTTTTTTTTTTTTTTGG [GGTTT] | 0.612 ± 0.01 | 0.444 ± 0.027 |
| TTTTTTCATCAGCATGCTCATTTTTTTTTTTTTTTGGTAG [GATGG] | 0.541 ± 0.021 | 0.431 ± 0.046 |
| TTTTTGCAGCATCATGCTGATTTTTTTTTTTTTTTTTGAC [CAGTT] | 0.461 ± 0.024 | 0.354 ± 0.04 |
| TTTTTTGCGCATGCTGATGATTTTTTTTTTTTTTTATACC [CCATA] | 0.411 ± 0.027 | 0.295 ± 0.018 |
| TTTTTTCATCATGCTCATGATTTTTTTTTTTTTTTGGAGC [CGAGG] | 0.549 ± 0.026 | 0.439 ± 0.029 |
| TTTTTGCAGCAGCATGATGATTTTTTTTTTTTTTTTTTCC [CCTTT] | 0.363 ± 0.017 | 0.253 ± 0.015 |
| TTTTTTGCGCATGCTCATGATTTTTTTTTTTTTTTATAGC [CGATA] | 0.519 ± 0.027 | 0.407 ± 0.031 |
| TTTTTTCAGCAGCATGCTCATTTTTTTTTTTTTTTGTTAG [GATTG] | 0.541 ± 0.019 | 0.438 ± 0.067 |
| TTTTTGCATCAGCAGCATGCTTTTTTTTTTTTTTTTGTTA [ATTGT] | 0.51 ± 0.02 | 0.415 ± 0.023 |
| TTTTTTGATGCTGCTCATGATTTTTTTTTTTTTTTCAAGC [CGAAC] | 0.514 ± 0.024 | 0.426 ± 0.07 |
| TTTTTTGATGCTCATCATCATTTTTTTTTTTTTTTCAGGG [GGGAC] | 0.723 ± 0.023 | 0.574 ± 0.026 |
| TTTTTTGCGCATGCTGATCATTTTTTTTTTTTTTTATACG [GCATA] | 0.574 ± 0.022 | 0.43 ± 0.029 |
| TTTTTGCATGCTGCTGATCATTTTTTTTTTTTTTTTAACG [GCAAT] | 0.51 ± 0.034 | 0.426 ± 0.037 |
| TTTTTTGCGCATCATCAGCATTTTTTTTTTTTTTTATGGT [TGGTA] | 0.649 ± 0.027 | 0.561 ± 0.028 |
| TTTTTTGATGATCAGCATGATTTTTTTTTTTTTTTCCGTC [CTGCC] | 0.442 ± 0.019 | 0.345 ± 0.018 |
| TTTTTTCATCATGATGCTGATTTTTTTTTTTTTTTGGCAC [CACGG] | 0.436 ± 0.03 | 0.336 ± 0.03 |
| TTTTTGCATCATGATGCGCATTTTTTTTTTTTTTTTGCAT [TACGT] | 0.529 ± 0.02 | 0.394 ± 0.02 |
